± gives the standard deviation of the averaged measurements.
System: Saccharomyces cerevisiae
Assay: protein stability index of tFT-peptide fusion (C-terminal peptide) (PSI (0-1 scale)); higher = more stable (slower turnover)
Conditions: genetic background: wild type; temperature: 30 C
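Also: PSI is a weighted mean of sequencing reads over stability bins, variants kept only with over 10 reads, mCherry proximal and sfGFP distal, peptide attached via GGGS linker.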

Sequence	protein stability index
TGSIMYDLEVDK	0.6795 ± 0.0039
IKKKKEEKKKKK	0.586 ± 0.023
RNPYNTNTVSNI	0.732 ± 0.08
RSRAYDSLPADQ	0.682 ± 0.058
SRQDLPKYVYLY	0.508 ± 0.016
SEAGSVMPIGLV	0.642 ± 0.082
GEDFRVLVFVRL	0.556 ± 0.0099
TVCGTLISFVEG	0.694 ± 0.028
DVRPVWGMAGSE	0.742 ± 0.12
SPSPPLPFSRPP	0.686 ± 0.044
IIKPPDIQQSRQ	0.739 ± 0.026
GSVLPPPAPPPL	0.674 ± 0.021
PSFPSSSCTSPI	0.693 ± 0.1
NVALPLSLLFGL	0.633 ± 0.087
DSCQALIWLVFT	0.586 ± 0.021
TRTRARAIQTAT	0.6462 ± 0.0054
PLHPPLSGPLPP	0.723 ± 0.021
PHLLRRPPTQRH	0.633 ± 0.049
ILVHFQGVHTVL	0.663 ± 0.018
GELGGRAWVERG	0.683 ± 0.044
LFFLPSSSLSPL	0.731 ± 0.022
QRRARVSDISVY	0.634 ± 0.012
PHRSLHTPTLCS	0.686 ± 0.16
SASSAHLDGACR	0.691 ± 0.0075
PLPLPAPPPPSP	0.663 ± 0.01

Sequence	protein stability index
EMGGLKACRGVG	0.56565 ± 0.00029
LGVVGYGLGGGK	0.707 ± 0.0096
LTLADWYRIPVI	0.558 ± 0.051
GKRKEAVLRMMI	0.6213 ± 0.0017
IKTLLDYESMRS	0.768 ± 0.034
GSWRVLVLLGEL	0.636 ± 0.029
PSSPPPPPPPPH	0.71 ± 0.0097
RSSSGANLQTTL	0.6517 ± 0.0031
YTPLLAHRGCCC	0.695 ± 0.029
EGGKRGGTPITK	0.654 ± 0.025
PPPLPPPPPAPS	0.692 ± 0.0096
SLPDSLPRPPPS	0.656 ± 0.072
IKQEKPTKLPEP	0.6435 ± 0.0052
VKSAAGPGRRSS	0.66 ± 0.015
ASRRSGSYTGYR	0.672 ± 0.035
RASPFPAMSAQV	0.684 ± 0.023
IERGLEGHLGHC	0.668 ± 0.035
GGPRGPPMLIWE	0.738 ± 0.037
VQLSISCEPPSN	0.7391 ± 0.007
KDLEIKKEKRKD	0.666 ± 0.015
FFMEKPSSGCTS	0.685 ± 0.017
PLTFRYQSHSAH	0.702 ± 0.11
PWPFKQHEHRRA	0.847 ± 0.015
DRLGGVSQVNIQ	0.751 ± 0.042
SFAHIVSLPVSM	0.657 ± 0.037

Sequence	protein stability index
RILPSPVSAGGF	0.62 ± 0.026
STPDIRYFPPWC	0.706 ± 0.027
VVGNGGWVEGEV	0.621 ± 0.13
YRPLEQLLSLSH	0.651 ± 0.08
RTIPSPDVRTRD	0.77 ± 0.011
GALIGNDGHVSG	0.679 ± 0.027
LPPLPPIAPPPP	0.8126 ± 0.0041
PPPSDPPPSPPP	0.665 ± 0.016
PVPVFLLLFFSP	0.496 ± 0.052
MVSFEWCLARSY	0.501 ± 0.054
RDILFIGINIYK	0.585 ± 0.049
GCFLIANMCLLG	0.665 ± 0.0035
GESRPPLASPHP	0.708 ± 0.0087
EAEKTERCVIKG	0.645 ± 0.027
TRCKLALEKLVG	0.5986 ± 0.0015
LPPPPPPPASPD	0.699 ± 0.058
KNKRTQKKKRKK	0.7299 ± 0.0016
PCCYAGLHFFLG	0.626 ± 0.068
VVSSFVCLLRRG	0.654 ± 0.055
PPLRPGLLYSPS	0.687 ± 0.019
RTGVTKYSETLI	0.677 ± 0.091
GLSTPPSPALLR	0.748 ± 0.013
EPGFWGGRGGRA	0.661 ± 0.01
GGGVRLMSIHRG	0.662 ± 0.012
PLSPFLRFLSSP	0.605 ± 0.072

Sequence	protein stability index
KHQNEKKQTNKA	0.623 ± 0.034
ARLPLPGSPPFS	0.719 ± 0.0029
EQRLQRATELGR	0.52028 ± 0.00016
SSGCVNILIDLF	0.638 ± 0.011
ERVEETGREQPT	0.754 ± 0.037
CRRLLIHTALRV	0.582 ± 0.015
SSLPPPRLFLLP	0.697 ± 0.085
ASSPPPRISAWL	0.7463 ± 0.0032
PFAPPPRPGPFP	0.697 ± 0.085
PRPLASRITSPA	0.692 ± 0.036
PLPPPPLAPPPP	0.687 ± 0.014
RINKIKRKKRIK	0.618 ± 0.062
GESLSLVRIWRK	0.625 ± 0.13
GVRRPYRSDLRL	0.678 ± 0.023
SPSYACLPPPIP	0.7461 ± 0.0032
RKAPLLFSLSHK	0.6761 ± 0.0031
LRNCSVSGSIEW	0.699 ± 0.019
TYANKVKVHCGI	0.651 ± 0.059
SLSRSFCRAHRS	0.722 ± 0.047
RPLNLPPPPAPF	0.659 ± 0.072
AYPWWLILSDAI	0.759 ± 0.016
PRYSLPTLLSSR	0.678 ± 0.051
QNKNPNRTEKSK	0.701 ± 0.056
PAPFPAPPTHGP	0.7165 ± 0.0061
HPHAIDPKIESI	0.693 ± 0.035

Sequence	protein stability index
SVATFDLHAGEW	0.75 ± 0.01
GTQTITAQRAAA	0.643 ± 0.015
KQANTKINSQKT	0.712 ± 0.036
LLALPFPPSSLF	0.701 ± 0.054
HRPSPSPSPPLP	0.752 ± 0.056
DVFVFHVLKKYP	0.654 ± 0.025
SRAIEPSEFSVA	0.715 ± 0.055
LAPPLILLPFVD	0.699 ± 0.033
RIRGGVLYKGVG	0.666 ± 0.016
LPLLLPFRTPDF	0.693 ± 0.015
RPFPLPPRPSPP	0.673 ± 0.13
ARFGYYLGLGRC	0.748 ± 0.065
PVPLPSSSPSPY	0.663 ± 0.046
WFLRSFGIQRSG	0.511 ± 0.0047
GARGGGRSRGTR	0.779 ± 0.091
PPPPPSFSFPPT	0.706 ± 0.049
PPFFLLLPPTIF	0.67 ± 0.063
QSNQEETRQDGT	0.687 ± 0.0084
LRCVPAVFFACK	0.647 ± 0.045
IHLTRGGNGHMD	0.6 ± 0.04
WYRIPGASHGPP	0.662 ± 0.034
FLLLSPARLVLL	0.5529 ± 0.0021
RGRAVGVGGGGV	0.626 ± 0.027
LLKNPFRGTSVF	0.737 ± 0.11
QNEVWDACVGRC	0.702 ± 0.017

Sequence	protein stability index
LLCYSGVIFGSV	0.59 ± 0.087
GQAGGRVEVREP	0.6887 ± 0.005
KSVSVDGYNKED	0.646 ± 0.01
QLSLSTPAGRLI	0.6886 ± 0.0068
REDSGGVNWGRC	0.692 ± 0.039
RRERRKKTETDK	0.7348 ± 0.0073
IRSVVLSSCWRG	0.706 ± 0.0097
LGIVSLDWLWLR	0.513 ± 0.043
PLPPSRLSPSPP	0.7 ± 0.0036
RPSRPPPRLLFA	0.644 ± 0.03
KTKERARTISRV	0.721 ± 0.024
SFSPSVLSREVS	0.66 ± 0.066
GLLSLPPRLPFL	0.672 ± 0.073
LGRRVGWEVSGE	0.687 ± 0.024
GHVCNSIVPFRV	0.624 ± 0.022
LVIVFDLGNMLH	0.538 ± 0.038
APPTPPHPRPSS	0.7269 ± 0.0036
GRRWPVPGGVSA	0.693 ± 0.09
QDTRRRAPYPPS	0.673 ± 0.051
RLSVRPGPLRLL	0.68 ± 0.025
RNGGSTWPLLGA	0.721 ± 0.017
